Broadly, the IC50 is the concentration that inhibits the measured activity by half.

Chain of 29Pro-h-Amylin (peptide) (peptide): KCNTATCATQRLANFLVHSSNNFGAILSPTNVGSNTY
Chain of 28Pro-h-Amylin (peptide) (peptide): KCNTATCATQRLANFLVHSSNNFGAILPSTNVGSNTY

This test has as its target amylin receptor (rat basal forebrain membranes containing the nucleus accumbens and surrounding regions) (rat). Kind of test: competition with 125I-Bolton-Hunter rat amylin on rat basal forebrain membranes, filtration.
In the case of “purified human amylin (from UniProt P10997 34-70) (peptide)”, the IC50 was 0.05 nM.

Regarding 1Ala-h-Amylin (peptide), the IC50 amounted to 0.148 nM.

In turn, 29Pro-h-Amylin (peptide) returned an IC50 of 0.064 nM.

28Pro-h-Amylin (peptide) gave an IC50 of 0.015 nM.

1Ser-h-Amylin (peptide): the half-maximal inhibitory concentration (IC50) was found to be 0.033 nM.

(Values after US7407934.)
